Test results reported in US20060240015A1 (Kyowa Kirin, published 2006).

Experiments:
[1] = biological target: T1, human insulin-like growth factor-I (human, UniProt P05019 49-118); assay: SPR (Biacore 2000)
T1 construct: mature; In the ELISAs it was coated as a conjugate with methylated BSA; in Biacore it was amine-coupled to a CM-5 chip; also called hIGF-I; IGF-I

[2] = biological target: T2, human insulin-like growth factor-II (human, UniProt P01344 25-91); assay: SPR (Biacore 2000)
T2 construct: also called hIGF-II; IGF-II
T2 sequence (P01344 25-91 limits assumed): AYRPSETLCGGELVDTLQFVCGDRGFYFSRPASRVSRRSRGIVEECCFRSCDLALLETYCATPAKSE

[3] = biological target: T3, partial peptide of hIGF-I corresponding to 1st to 18th (human); assay: competitive ELISA, methylated BSA-hIGF-I coated, peptide in solution
T3 construct: also called p1-18
T3 peptide: GPETLSGAELVDALQFVC

[4] = biological target: T4, partial peptide of hIGF-I corresponding to 14th to 30th (human); assay: as above
T4 construct: also called p14-30
T4 peptide: CLQFVAGDRGFYFNKPTG

[5] = biological target: T5, partial peptide of hIGF-I corresponding to 24th to 35th (human); assay: as above
T5 construct: also called p24-35
T5 peptide: CYFNKPTGYGSSS

[6] = biological target: T6, partial peptide of hIGF-I corresponding to 29th to 41st (human); assay: as above
T6 construct: also called p29-41
T6 peptide: CTGYGSSSRRAPQT

[7] = biological target: T7, partial peptide of hIGF-I corresponding to 36th to 47th (human); assay: as above
T7 construct: also called p36-47
T7 peptide: RRAPQTGIVDEC

[8] = biological target: T8, partial peptide of hIGF-I corresponding to 41st to 56th (human); assay: as above
T8 construct: also called p41-56
T8 peptide: CTGIVDEAAFRSADLRR

[9] = biological target: T9, partial peptide of hIGF-I corresponding to 52nd to 70th (human); assay: as above
T9 construct: also called p52-70
T9 peptide: CDLRRLEMYAAPLKPAKSA

[10] = biological target: T10, partial peptide of hIGF-I corresponding to 61st to 70th (human); assay: as above
T10 construct: also called p61-70
T10 peptide: CAPLKPAKSA

[11] = biological target: T11, partial peptide of hIGF-I corresponding to 41st to 56th having an inner Cys (human); assay: as above
T11 construct: also called p41-56C; p41-56c
T11 peptide: CTGIVDECCFRSCDLRR

[12] = biological target: T1, human insulin-like growth factor-I; assay: SPR (Biacore 2000), hIGF-I amine-coupled on CM-5, antibody as analyte, 25 C
Description: (§1) In order to analyze the binding activity of the anti-hIGF rat monoclonal KM1468 to an antigen hIGF-I or hIGF-II, the binding affinities of the anti-hIGF rat monoclonal KM1468, a commercially available anti-hIGF-I antibody sm1.2 and a commercially available anti-hIGF-II antibody S1F2 to hIGF-I and hIGF-II were assayed in the following manner using the biosensor Biacore 2000 (manufactured by Biacore) utilizing surface plasmon resonance. For the diluting samples and as the reaction buffers in measurement, HBS-EP (10 mM HEPES, 150 mM NaCl, 3 mM EDTA, 0.005% Tween 20, pH 7.4) (manufactured by Biacore) was used.
(§2) Using an amine coupling (manufactured by Biacore), hIGF-I or hIGF-II were immobilized at 36.0 pg/mm² or 41.7 pg/mm², respectively, on sensor tip CM-5 (manufactured by Biacore). After 3 types of the antibodies which were diluted in 6 steps in 2-fold serial dilutions starting from 20 μg/ml as analytes, were added at a flow rate of 20 μl/minute for 2 minutes, the dissociation of the analytes was subsequently observed over 5 minutes. The reaction was carried out at 25° C. Based on the reaction curves at various concentrations, association constant Kass and dissociation constant Kdiss were calculated, to calculate the binding constant KA (M⁻¹) of these various antibodies. The binding constant KA is calculated by KA=Kass/Kdiss.

[13] = biological target: T2, human insulin-like growth factor-II; assay: SPR (Biacore 2000), hIGF-II amine-coupled on CM-5, antibody as analyte, 25 C
Description: as §1, §2

human insulin = biological target: T12, human insulin (human, UniProt P01308 25-54; P01308 90-110); assay: competitive ELISA, methylated BSA-hIGF-I or methylated BSA-hIGF-II coated, insulin in solution
T12 construct: Bought
T12 sequence (P01308 25-54 limits assumed, chain 1 of 2): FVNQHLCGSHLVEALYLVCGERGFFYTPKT
T12 sequence (P01308 90-110 limits assumed, chain 2 of 2): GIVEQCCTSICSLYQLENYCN
Excerpt: Cross reactivity of the purified anti-hIGF rat antibody KM1468 with hIGF-II and human insulin was examined by the competitive ELISA shown below. As the antigens, hIGF-I (manufactured by Pepro Tech), hIGF-II (manufactured by Pepro Tech) and human insulin (manufactured Wako Pure Chemical Industries) were used.
The methylated BSA-hIGF-I antigen prepared in Reference Example 1(1) or a methylated BSA-hIGF-II antigen prepared in the same manner as in Reference Example 1(1) was immobilized on a plate in accordance with the method shown in Reference Example 1(4), at a concentration of 0.1 μg/ml in the case of the methylated BSA-hIGF-I antigen, or at a concentration of 1.0 μg/ml in the case of the methylated BSA-hIGF-II antigen, KM1468 diluted to 0.6 μg/ml was dispensed at 25 μl/well, and then each of 4-fold serial dilutions of hIGF-I, hIGF-II or human insulin prepared by starting from 20 μg/ml was dispensed at 25 μl/well, mixed and left at room temperature for 1 hour. After the reaction and subsequent washing with Tween-PBS, 1000-fold diluted peroxidase-labeled rabbit anti-rat Ig antibody (manufactured by DAKO) was added at 50 μl/well as the secondary antibody in the case of the anti-hIGF antibody KM1468. […] The results are represented by relative values (%) wherein OD415 when an antibody was added alone was defined as 100.

T1 sequence (P05019 49-118): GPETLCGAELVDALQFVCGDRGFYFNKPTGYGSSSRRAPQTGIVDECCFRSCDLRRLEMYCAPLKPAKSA

B1: anti-hIGF rat monoclonal antibody KM1468 (antibody, rat IgG2b, V domains shown)
VH: EVHLVESGGGLVQPGRSLKLSCAASGFTFSNYYMTWVRQAPTKGLEWVAYISSGGGSTYYRDSVKGRFTISRDNAKSTLYLQMDSLRSEDTATYYCTTEDYGYWFAYWGQGTLVTVSS
VL: EIVLTQSPTTMAASPGEKVTITCRASSSVSYMHWFQQKSGTSPKPWIYGTSKLASGVPDRFSGSGSGTSYSLTISSMEAEDAATYYCLQRSSYPPTFGAGTKLELK
notes: Rat IgG2b, kappa; Hybridoma FERM BP-7978; also called anti-hIGF antibody KM1468; anti-hIGF rat antibody KM1468
In the case of B1, the “KA relative to S1F2 (fold)” value [1] is reported as about 18 fold, the “KA relative to sm1.2 (fold)” value [1] is reported as about 42 fold and the “KA relative to S1F2 (fold)” value [2] is reported as about 3.6 fold. The “KA relative to sm1.2 (fold)” value [2] was about 120 fold, the binding result [3] was “no binding (tested: 3-fold serial dilutions from 50 µg/mL)” and the binding result [4] was “no binding (tested: 3-fold serial dilutions from 50 µg/mL)”. B1: no binding (tested: 3-fold serial dilutions from 50 µg/mL) [5]; no binding (tested: 3-fold serial dilutions from 50 µg/mL) [6]; no binding (tested: 3-fold serial dilutions from 50 µg/mL) [7]. B1: no binding (tested: 3-fold serial dilutions from 50 µg/mL) [8]; no binding (tested: 3-fold serial dilutions from 50 µg/mL) [9]; no binding (tested: 3-fold serial dilutions from 50 µg/mL) [10]. For the same binder, the binding result [11] was “no binding (tested: 3-fold serial dilutions from 50 µg/mL)”, the Ka [12] was 7.86e+09 M⁻¹ and the Ka [13] was 8.63e+09 M⁻¹. B1: no binding (human insulin).
